Assay results taken from article PMC8303780, “Mutational Analysis of Redβ Single Strand Annealing Protein: Roles of the 14 Lysine Residues in DNA Binding and Recombination In Vivo”.

Molecular target: T1, Redβ K11A (bacteriophage λ, UniProt P03698 1-261, K11A)
T1 sequence: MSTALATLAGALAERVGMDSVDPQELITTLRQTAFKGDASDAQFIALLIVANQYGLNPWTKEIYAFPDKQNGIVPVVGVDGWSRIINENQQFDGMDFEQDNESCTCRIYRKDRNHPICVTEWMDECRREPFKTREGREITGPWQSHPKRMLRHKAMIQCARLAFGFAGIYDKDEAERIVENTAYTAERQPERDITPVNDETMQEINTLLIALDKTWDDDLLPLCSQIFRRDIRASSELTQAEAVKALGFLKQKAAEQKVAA
Assay: EMSA; strands added sequentially; Anisotropy: 50 mM Tris-HCl pH 7.5, 1 mM DTT, 0.1 mg/mL BSA, 10 nM FAM48, 23 °C (Kd per monomer); gel assay: 10 µM Redβ, 50 µM nt of each oligo, PBS, 37 °C, 1% agarose at 22 °C
Conditions: protein: recombinant; tags: 6xHis removed by thrombin; residual N-terminal GSH; label: 5'-Cy3 and 5'-Cy5; complementary 50-mers; annealed by protein

B1: annealed duplex of Cy3 and Cy5 50-mers, strands added sequentially (dsDNA)
DNA 1: GCGGATGGCTTAGAGCAGAATCGCCCTGCATAGCTCGATTTTTGCGGATG
DNA 2: CCATCCGCAAAAATCGAGCTATGCAGGGCGATTCTGCTCTAAGCCATCCG
  binding result: binds
